In article PMC9641999, “Cryo-EM samples of gas-phase purified protein assemblies using native electrospray ion-beam deposition” (Faraday discussions, 2022):

Molecular target: the molecule itself
Experiment: native MS; non-activating native electrospray on a Q Exactive UHMR; 200 mM ammonium acetate pH 6.9; 5 μM ADH, 10 μM β-gal, 8 μM ferritin, 5 μM GroEL (concentrations of the most abundant oligomers)

B1: alcohol dehydrogenase (enzyme)
chain: MSIPETQKGVIFYESHGKLEYKDIPVPKPKANELLINVKYSGVCHTDLHAWHGDWPLPVKLPLVGGHEGAGVVVGMGENVKGWKIGDYAGIKWLNGSCMACEYCELGNESNCPHADLSGYTHDGSFQQYATADAVQAAHIPQGTDLAQVAPILCAGITVYKALKSANLMAGHWVAISGAAGGLGSLAVQYAKAMGYRVLGIDGGEGKEELFRSIGGEVFIDFTKEKDIVGAVLKATDGGAHGVINVSVSEAAIEASTRYVRANGTTVLVGMPAGAKCCSDVFNQVVKSISIVGSYVGNRADTREALDFFARGLVKSPIKVVGLSTLPEIYEKMEKGQIVGRYVVDTSK
notes: alcohol dehydrogenase (ADH), Sigma Aldrich A7011-15KU; native tetramer selected by mass; also called ADH; source: bought: Sigma Aldrich (A7011-15KU), used without further purification; desalted into 200 mM ammonium acetate
stoichiometry N: 4

B2: apoferritin (natural protein, UniProt P02791 1-175, looked up)
chain: MSSQIRQNYSTEVEAAVNRLVNLYLRASYTYLSLGFYFDRDDVALEGVCHFFRELAEEKREGAERLLKMQNQRGGRALFQDLQKPSQDEWGTTLDAMKAAIVLEKSLNQALLDLHALGSAQADPHLCDFLESHFLDEEVKLIKKMGDHLTNIQRLVGSQAGLGEYLFERLTLKHD
notes: ferritin, Sigma Aldrich F4503-25MG; The sample held both apo- and holoferritin, and the 24-mer of apoferritin was selected by mass; PDB 7A6A, used for comparison of shapes, may be a recombinant ferritin of another species or chain; also called apo/holo-ferritin; source: bought: Sigma Aldrich (F4503-25MG), saline stock solution, used without further purification; desalted into 200 mM ammonium …
stoichiometry N: 24
